Source: US20230356187A1 (AMICOGEN, published 2023)
Numbering of substitutions follows the chain as printed. Names may count otherwise.

B1: Protein L B3 domain variant BEP1(E28G/Y13F) (designed binder)
chain: MPKEEVTIKANLIFADGKTQTAEFKGTFGEATAEAYRYADLLAKENGKYTVDVADKGYTLNIKFAGKEKTPEE
notes: not shown: 6xHis tag
B2: Protein L B3 domain variant BEP2(E28G/K43P) (designed binder)
chain: B1 chain with F14Y, K44P
notes: not shown: 6xHis tag
B3: Protein L B3 domain variant BEP3(E28G/D51V) (designed binder)
chain: B1 chain with F14Y, D52V
notes: not shown: 6xHis tag
B4: Protein L B3 domain variant BEP4(E28G/N60E) (designed binder)
chain: B1 chain with F14Y, N61E
notes: not shown: 6xHis tag
B5: Protein L B3 domain variant EPS1(E28L) (designed binder)
chain: B1 chain with F14Y, G29L
notes: not shown: 6xHis tag
B6: Protein L B3 domain variant EPS2(E28P) (designed binder)
chain: B1 chain with F14Y, G29P
notes: not shown: 6xHis tag
B7: Protein L B3 domain variant EPS3(E28W) (designed binder)
chain: B1 chain with F14Y, G29W
notes: not shown: 6xHis tag
B8: Protein L B3 domain variant EPS4(E28G/K43E) (designed binder)
chain: B1 chain with F14Y, K44E
notes: not shown: 6xHis tag
B9: Protein L B3 domain variant EPS5(E28G/D51T) (designed binder)
chain: B1 chain with F14Y, D52T
notes: not shown: 6xHis tag
B10: Protein L B3 domain variant EPS6(E28G/N60F) (designed binder)
chain: B1 chain with F14Y, N61F
notes: not shown: 6xHis tag
B11: Wild-type Protein L B3 domain (other)
chain: B1 chain with F14Y, G29E
notes: also called wB3; wild-type B3 domain; not shown: 6xHis tag
B12: Protein L B3 domain variant EP1(E28A) (designed binder)
chain: B1 chain with F14Y, G29A
notes: not shown: 6xHis tag
B13: Protein L B3 domain variant EP2(E28G) (designed binder)
chain: B1 chain with F14Y
notes: not shown: 6xHis tag
B14: Protein L B3 domain variant mBF4 (Y13F/E28G/K43P) (designed binder)
chain: B1 chain with K44P
notes: also called mBF monomer; not shown: 6xHis tag

What follows are binders tested against T1, IgG(f) protein (Herceptin scFv) (assay: binder coupled to NHS-Sepharose in 96-well filter plate; bound IgG(f) eluted and read at OD280 after 0.3 M NaOH).
T1 construct: Polypeptide of the human IgG1-based scFv region (GenBank AWW43726); Expressed from pET29a(+) (NdeI/XhoI) in E. coli and purified on Ni-NTA resin; also called recombinant immunoglobulin G fragment
T1 sequence (scFv, as listed by the source): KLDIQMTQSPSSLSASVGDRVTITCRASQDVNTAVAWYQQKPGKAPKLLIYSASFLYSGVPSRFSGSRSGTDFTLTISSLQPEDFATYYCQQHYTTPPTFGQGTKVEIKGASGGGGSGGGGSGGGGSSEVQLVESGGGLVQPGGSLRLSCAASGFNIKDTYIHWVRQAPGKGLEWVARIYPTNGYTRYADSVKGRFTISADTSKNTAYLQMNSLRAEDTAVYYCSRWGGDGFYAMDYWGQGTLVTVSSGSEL

Binder | binding result
B1 | binds
B2 | binds
B3 | binds
B4 | binds
B5 | binds
B6 | binds
B7 | binds
B8 | binds
B9 | binds
B10 | binds

Each binder was assayed against T1, IgG(f) protein (Herceptin scFv) (assay: binder coupled to NHS-Sepharose in 96-well filter plate; bound IgG(f) eluted at pH 2.5 and read at OD280, before and after 0.3 M NaOH).

Binder | binding result
B11 | binds
B12 | binds

The binders below were run against T1, IgG(f) protein (Herceptin scFv) (assay: binder coupled to NHS-Sepharose in 96-well filter plate; bound IgG(f) eluted and read at OD280 after 0.3 M NaOH; reference set to 100%).

Binder | binding result
B13 | binds

What follows are binders tested against T1, IgG(f) protein (Herceptin scFv) (assay: binder coupled to NHS-Sepharose; bound IgG(f) eluted and read at OD280; relative to 0 h (100%), after 5 h in 0.3 M NaOH; reference wB3).
Protocol: The library prepared in Example 5 was purified by the same manner as in Examples <1-3>, and the absorbance over time was measured by the same method as in Example 3 to compare the alkali tolerance. The absorbance over time obtained is shown in FIG. 5 as a relative value to the absorbance (100%) at the beginning (0 h).

Binder | fold increase in alkali tolerance (residual scFv binding activity after 5 hours in 0.3 M NaOH) compared to wB3 [fold]
B14 | ~2.7
